Measured values from ChEMBL document CHEMBL2074458, “Fluorescence-based assay for the interaction of small molecules with the human renal organic anion transporter 1” (Anal Biochem, 2000).

Substrate: O=C(O)c1ccc(C(=O)O)c(-c2c3ccc(=O)cc-3oc3cc(O)ccc23)c1
Assay: TP_TRANSPORTER: uptake in OAT1-expressing CHO cells
Assay type: functional, cell-based

B1: Solute carrier family 22 member 6 (Homo sapiens) (protein)
chain: MAFNDLLQQVGGVGRFQQIQVTLVVLPLLLMASHNTLQNFTAAIPTHHCRPPADANLSKNGGLEVWLPRDRQGQPESCLRFTSPQWGLPFLNGTEANGTGATEPCTDGWIYDNSTFPSTIVTEWDLVCSHRALRQLAQSLYMVGVLLGAMVFGYLADRLGRRKVLILNYLQTAVSGTCAAFAPNFPIYCAFRLLSGMALAGISLNCMTLNVEWMPIHTRACVGTLIGYVYSLGQFLLAGVAYAVPHWRHLQLLVSAPFFAFFIYSWFFIESARWHSSSGRLDLTLRALQRVARINGKREEGAKLSMEVLRASLQKELTMGKGQASAMELLRCPTLRHLFLCLSMLWFATSFAYYGLVMDLQGFGVSIYLIQVIFGAVDLPAKLVGFLVINSLGRRPAQMAALLLAGICILLNGVIPQDQSIVRTSLAVLGKGCLAASFNCIFLYTGELYPTMIRQTGMGMGSTMARVGSIVSPLVSMTAELYPSMPLFIYGAVPVAASAVTVLLPETLGQPLPDTVQDLESRWAPTQKEAGIYPRKGKQTRQQQEHQKYMVPLQASAQEKNGL
B1 was tested, and the Km was 3.95 µM.
